Laboratory results as given in patent US9566335 (GOVERNING COUNCIL OF THE UNIVERSITY OF TORONTO, dated 2017).
No end group written: not given here. *: point of attachment. Biotin = O=C1N[C@H]2[C@H](CS[C@H]2CCCCC(=O)*)N1

B1: Phage displayed wild-type E. coli ClpS (truncated wildtype ClpS polypeptide, FLAG-tagged, fused to phage coat protein p3) (other)
chain: KPPSMYKVILVNDDYTPMEFVIDVLQKFFSYDVERATQLMLAVHYQGKAICGVFTAEVAETKVAMVNKYARENEHPLLCTLEKA
notes: also called ClpS Wt; ClpS WT; not shown: N-terminal FLAG tag
B2: biotinylated peptide X-SDGMFTAGSLIGK(biotin), X = L (peptide)
peptide: LSDGMFTAGSLIGK(Biotin)
notes: also called Leu peptide
B3: ClpS Variant 1 (Trp-binding ClpS variant), phage displayed (designed binder)
chain: KPPSMYKVILVNDDYTPAEFCIDVLQKFFSYDVERATQLCLAAHYQGKAICGVFTAEVAETKVAMVNKYARENEHAALCTLEKA
notes: tested as phage; also called ClpS variant W1; W1; not shown: N-terminal FLAG tag of the phage display construct; C-terminal phage coat protein p3 of the phage display construct

How the values were obtained:
bovine serum albumin = target: T1, bovine serum albumin (bovine, UniProt P02769 25-607); assay: phage ELISA, FIG. 6B
T1 construct: also called BSA

streptavidin = target: T2, streptavidin (UniProt P22629 37-163); assay: phage ELISA, FIG. 6B
T2 construct: also called SA

[1] = target: B1; assay: phage ELISA
[2] = target: B2; assay: phage ELISA
[3] = target: B3; assay: competitive phage ELISA: W1 phage equilibrated with free peptide, then on immobilised Wpep(biotin)
[4] = target: B3; assay: competitive phage ELISA against immobilised Wpep
[5] = target: B3; assay: competitive phage ELISA, 10 uM free peptide against immobilised Wpep

T2 sequence (P22629 37-163 limits assumed): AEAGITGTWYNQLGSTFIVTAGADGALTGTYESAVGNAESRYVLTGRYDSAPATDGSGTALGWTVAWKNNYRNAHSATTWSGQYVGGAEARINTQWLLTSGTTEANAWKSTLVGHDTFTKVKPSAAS
T1 sequence (P02769 25-607 limits assumed): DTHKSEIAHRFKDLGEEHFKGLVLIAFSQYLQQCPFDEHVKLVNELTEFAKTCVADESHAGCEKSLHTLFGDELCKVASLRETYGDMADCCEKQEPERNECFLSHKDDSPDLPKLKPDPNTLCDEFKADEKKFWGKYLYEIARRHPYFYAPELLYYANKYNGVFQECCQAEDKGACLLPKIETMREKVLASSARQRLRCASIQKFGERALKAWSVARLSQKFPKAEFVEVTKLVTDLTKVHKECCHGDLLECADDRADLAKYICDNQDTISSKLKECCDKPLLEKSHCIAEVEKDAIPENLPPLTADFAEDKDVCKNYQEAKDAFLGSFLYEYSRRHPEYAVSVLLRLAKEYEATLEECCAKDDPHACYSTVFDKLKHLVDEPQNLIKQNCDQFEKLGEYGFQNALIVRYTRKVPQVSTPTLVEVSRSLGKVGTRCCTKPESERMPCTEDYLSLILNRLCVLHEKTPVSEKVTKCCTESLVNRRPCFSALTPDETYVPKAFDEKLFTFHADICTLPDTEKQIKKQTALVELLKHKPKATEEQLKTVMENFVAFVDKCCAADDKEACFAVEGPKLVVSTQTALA

B1
binding result (bovine serum albumin): no binding
binding result (streptavidin): no binding

WSDGMFTAGSLIGK(Biotin) (also called Wpep; Trp peptide) [biotinylated peptide X-SDGMFTAGSLIGK(biotin), X = W]
binding result [1]: binds

B2
binding result [1]: binds

B3
binding result [2]: no binding

WSDGMFTAGSLI (also called Wpep) [non-biotinylated peptide XSDGMFTAGSLI, X = W]
IC50 [3]: ~1000 nM
binding remaining at 10 uM competitor (relative to no competitor) [3]: 11%

QSDGMFTAGSLI [non-biotinylated peptide XSDGMFTAGSLI, X = Q]
binding result [4]: no binding (tested: 10 uM)

DSDGMFTAGSLI [non-biotinylated peptide XSDGMFTAGSLI, X = D]
binding result [4]: no binding (tested: 10 uM)

TSDGMFTAGSLI [non-biotinylated peptide XSDGMFTAGSLI, X = T]
binding result [4]: no binding (tested: 10 uM)

ASDGMFTAGSLI [non-biotinylated peptide XSDGMFTAGSLI, X = A]
binding result [4]: no binding (tested: 10 uM)

KSDGMFTAGSLI [non-biotinylated peptide XSDGMFTAGSLI, X = K]
binding result [4]: no binding (tested: 10 uM)

ISDGMFTAGSLI [non-biotinylated peptide XSDGMFTAGSLI, X = I]
binding result [5]: binds

VSDGMFTAGSLI [non-biotinylated peptide XSDGMFTAGSLI, X = V]
binding result [4]: no binding (tested: 10 uM)

LSDGMFTAGSLI [non-biotinylated peptide XSDGMFTAGSLI, X = L]
binding result [5]: binds

HSDGMFTAGSLI [non-biotinylated peptide XSDGMFTAGSLI, X = H]
binding result [4]: no binding (tested: 10 uM)

ESDGMFTAGSLI [non-biotinylated peptide XSDGMFTAGSLI, X = E]
binding result [4]: no binding (tested: 10 uM)

MSDGMFTAGSLI [non-biotinylated peptide XSDGMFTAGSLI, X = M]
binding result [4]: no binding (tested: 10 uM)

PSDGMFTAGSLI [non-biotinylated peptide XSDGMFTAGSLI, X = P]
binding result [4]: no binding (tested: 10 uM)

CSDGMFTAGSLI [non-biotinylated peptide XSDGMFTAGSLI, X = C]
binding result [4]: no binding (tested: 10 uM)

YSDGMFTAGSLI [non-biotinylated peptide XSDGMFTAGSLI, X = Y]
binding result [5]: binds

RSDGMFTAGSLI [non-biotinylated peptide XSDGMFTAGSLI, X = R]
binding result [4]: no binding (tested: 10 uM)

FSDGMFTAGSLI [non-biotinylated peptide XSDGMFTAGSLI, X = F]
binding result [5]: binds

SSDGMFTAGSLI [non-biotinylated peptide XSDGMFTAGSLI, X = S]
binding result [4]: no binding (tested: 10 uM)

NSDGMFTAGSLI [non-biotinylated peptide XSDGMFTAGSLI, X = N]
binding result [4]: no binding (tested: 10 uM)

GSDGMFTAGSLI [non-biotinylated peptide XSDGMFTAGSLI, X = G]
binding result [5]: binds
